Laboratory results: the supplement of paper PMC9876800

Tested on: peptide library, one residue held at a place counted from the S/T acceptor
Experiment: relative phosphorylation of the sub-library (ratio to the mean residue at this position); higher = residue favoured
Procedure, shortened: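 Each biotinylated degenerate peptide sub-library fixed one residue at one position around a central Ser/Thr and was incubated with a purified recombinant kinase, a human or orthologue construct, in 384-well plates. The 90 min reactions, under kinase-specific conditions, contained 50 μM peptide and 50 μM ATP spiked with γ-32P-ATP. Phosphorylation was read by phosphorimaging spots on streptavidin membranes and quantifying them by densitometry. Relative sub-library phosphorylation expresses each value as a ratio to the mean residue at that position.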

Sequence of BMPR2, construct: aa172-end, human (Q13873 172-1038, looked up): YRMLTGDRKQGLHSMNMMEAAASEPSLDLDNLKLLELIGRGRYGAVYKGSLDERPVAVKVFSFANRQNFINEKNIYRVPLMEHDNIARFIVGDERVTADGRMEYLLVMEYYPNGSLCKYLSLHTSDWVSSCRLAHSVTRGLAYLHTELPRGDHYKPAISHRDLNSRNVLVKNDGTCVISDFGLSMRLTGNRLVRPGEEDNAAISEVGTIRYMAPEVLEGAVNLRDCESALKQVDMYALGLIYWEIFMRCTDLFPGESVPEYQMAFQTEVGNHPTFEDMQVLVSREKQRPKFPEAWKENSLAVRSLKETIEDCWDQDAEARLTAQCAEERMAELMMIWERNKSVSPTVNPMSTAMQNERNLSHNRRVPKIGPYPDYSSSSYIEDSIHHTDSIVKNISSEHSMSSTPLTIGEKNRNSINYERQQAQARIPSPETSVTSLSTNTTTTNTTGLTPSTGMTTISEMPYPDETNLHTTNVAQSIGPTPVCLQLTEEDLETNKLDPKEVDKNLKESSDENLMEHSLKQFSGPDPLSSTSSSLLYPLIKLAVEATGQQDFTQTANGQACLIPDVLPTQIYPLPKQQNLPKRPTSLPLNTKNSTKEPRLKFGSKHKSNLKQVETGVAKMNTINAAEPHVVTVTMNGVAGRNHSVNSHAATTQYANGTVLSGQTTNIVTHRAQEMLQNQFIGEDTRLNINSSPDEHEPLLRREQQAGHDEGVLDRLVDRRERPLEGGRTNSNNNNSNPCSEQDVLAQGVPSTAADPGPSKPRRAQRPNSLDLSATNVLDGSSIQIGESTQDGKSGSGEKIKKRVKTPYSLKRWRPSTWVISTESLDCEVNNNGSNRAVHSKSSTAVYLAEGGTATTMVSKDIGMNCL

BMPR2, construct: aa172-end, human (from UniProt Q13873)
relative phosphorylation
Conditions | at +1 | at +2 | at +3 | at +4 | at -1 | at -2 | at -3 | at -4 | at -5
A fixed | 0.89 | 1 | 0.941 | 0.96 | 0.845 | 0.887 | 0.99 | 1.11 | 1.08
D fixed | 0.946 | 1.13 | 0.871 | 0.94 | 0.963 | 1.86 | 1.24 | 1.1 | 1.08
E fixed | 1.08 | 1.08 | 0.844 | 0.951 | 0.944 | 1.91 | 1.19 | 1.18 | 1.04
F fixed | 0.929 | 0.88 | 0.927 | 0.94 | 1.1 | 0.825 | 0.977 | 0.973 | 1.06
G fixed | 0.969 | 1.04 | 1.1 | 1.02 | 0.839 | 1.05 | 1.08 | 1.01 | 1.06
H fixed | 1.1 | 1.04 | 1.03 | 1 | 1.01 | 0.904 | 1.08 | 0.978 | 0.96
I fixed | 1.02 | 0.889 | 0.92 | 0.868 | 0.862 | 0.728 | 0.892 | 0.911 | 0.971
K fixed | 0.831 | 1.03 | 1.04 | 1.1 | 0.822 | 0.791 | 0.835 | 0.935 | 0.913
L fixed | 1.04 | 0.905 | 0.934 | 0.935 | 1.1 | 0.786 | 0.869 | 0.928 | 0.913
M fixed | 1.15 | 0.989 | 0.93 | 0.943 | 1.24 | 0.797 | 0.955 | 0.936 | 0.895
N fixed | 1.02 | 0.987 | 1.01 | 0.963 | 0.968 | 1.05 | 1.03 | 0.938 | 0.898
P fixed | 0.724 | 1.02 | 1.17 | 1.08 | 0.738 | 0.809 | 0.965 | 1.09 | 0.948
Q fixed | 1.04 | 1.01 | 0.949 | 0.973 | 0.986 | 1.15 | 1.04 | 0.919 | 0.861
R fixed | 0.933 | 1 | 1.22 | 1.18 | 0.905 | 0.816 | 0.873 | 0.867 | 0.956
V fixed | 0.999 | 0.972 | 0.989 | 0.926 | 1.03 | 0.822 | 0.862 | 0.979 | 1.01
W fixed | 1.1 | 0.94 | 0.998 | 1.16 | 1.24 | 0.855 | 1.03 | 1.05 | 1.18
Y fixed | 1.24 | 1.1 | 1.12 | 1.05 | 1.4 | 0.95 | 1.11 | 1.09 | 1.18
pThr fixed | 1.02 | 1.04 | 0.847 | 0.873 | 0.862 | 0.993 | 1.15 | 1.08 | 0.979
pTyr fixed | 0.907 | 0.891 | 0.883 | 0.86 | 1.56 | 1.06 | 1.34 | 1.1 | 1.07

CDC42BPB, construct: aa1-473, human (from UniProt Q9Y5S2)
relative phosphorylation
Conditions | at +1 | at +2 | at +3 | at +4 | at -1 | at -2 | at -3 | at -4 | at -5
A fixed | 0.871 | 1.22 | 0.922 | 0.791 | 0.734 | 0.478 | 0.556 | 0.951 | 0.922
D fixed | 0.4 | 0.468 | 0.548 | 0.721 | 0.379 | 0.196 | 0.199 | 0.472 | 0.427
E fixed | 0.435 | 0.373 | 0.654 | 0.667 | 0.313 | 0.181 | 0.204 | 0.506 | 0.479
F fixed | 0.776 | 0.935 | 1.01 | 0.821 | 0.552 | 0.442 | 0.381 | 0.718 | 0.843
G fixed | 0.803 | 1.1 | 1.42 | 1.07 | 0.883 | 0.45 | 0.44 | 0.974 | 1.04
H fixed | 0.962 | 1.19 | 1.2 | 1.11 | 1.21 | 0.989 | 1.03 | 1.06 | 0.99
I fixed | 1.55 | 1.32 | 0.96 | 0.924 | 0.572 | 0.419 | 0.382 | 0.651 | 0.788
K fixed | 0.865 | 1.58 | 1.03 | 1.34 | 2.46 | 2.78 | 2.55 | 2.46 | 2.54
L fixed | 1.74 | 0.816 | 0.841 | 0.852 | 1.36 | 0.423 | 0.326 | 0.7 | 0.645
M fixed | 1.24 | 0.823 | 0.944 | 0.919 | 1.04 | 0.459 | 0.36 | 0.775 | 0.664
N fixed | 1.89 | 0.819 | 0.918 | 0.856 | 1.2 | 0.787 | 0.524 | 0.756 | 0.812
P fixed | 0.404 | 0.842 | 0.888 | 1.38 | 0.786 | 0.433 | 0.371 | 0.873 | 0.875
Q fixed | 1.08 | 0.699 | 0.829 | 1.08 | 1.09 | 0.798 | 0.648 | 0.851 | 0.786
R fixed | 1.41 | 1.65 | 1.52 | 1.52 | 2.15 | 6.46 | 7.75 | 3.03 | 2.81
V fixed | 0.983 | 1.13 | 0.936 | 0.787 | 0.667 | 0.397 | 0.335 | 0.637 | 0.768
W fixed | 0.852 | 0.934 | 1.06 | 1.23 | 0.648 | 0.718 | 0.524 | 0.849 | 0.756
Y fixed | 0.736 | 1.12 | 1.33 | 0.93 | 0.97 | 0.591 | 0.425 | 0.735 | 0.856
pThr fixed | 0.479 | 0.762 | 0.582 | 0.698 | 0.344 | 0.329 | 0.352 | 0.647 | 0.611
pTyr fixed | 0.553 | 0.745 | 0.707 | 0.685 | 0.467 | 0.319 | 0.545 | 0.558 | 0.62
